Laboratory results from patent US8071348B2, “Protein tyrosine phosphatase substrate-trapping double mutant and uses thereof” (Albert Einstein College of Medicine of Yeshiva University, priority 2002, dated 2011).

Tests used:
[1] = tested on: EGFR^988-998 peptide, DADEpYLIPQQG; experiment: Kinetic constants for PTP1B-catalyzed hydrolysis of pTyr-containing EGFR988-998 peptide; assay type: biochemical; settings: EGFR988-998 peptide as substrate
Summary of the method: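 PTP1B catalytic domain (residues 1–321), wild-type or mutant, expressed in E. coli. Continuous assay at 25° C., pH 7.0, in 50 mM 3,3-dimethylglutarate with 1 mM EDTA (ionic strength 0.15 M). Dephosphorylation followed by absorbance increase at 282 nm or fluorescence at 305 nm to obtain kcat and Km.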

[2] = target: T1, Ac-Asp-Ala-Asp-Glu-F2Pmp-Leu-NH2 (Homo sapiens, UniProt P18031, C215S); experiment: Isothermal titration calorimetry, binding of PTP1B and mutants to F2Pmp peptide; settings: lower temperature (15° C.)
T1 construct: The catalytic domain of PTP1B (residues 1 to 321) was used for in vitro study; made in house; host or cells: E. coli (pT7-7 plasmids)
T1 sequence (P18031 1-321 C215S): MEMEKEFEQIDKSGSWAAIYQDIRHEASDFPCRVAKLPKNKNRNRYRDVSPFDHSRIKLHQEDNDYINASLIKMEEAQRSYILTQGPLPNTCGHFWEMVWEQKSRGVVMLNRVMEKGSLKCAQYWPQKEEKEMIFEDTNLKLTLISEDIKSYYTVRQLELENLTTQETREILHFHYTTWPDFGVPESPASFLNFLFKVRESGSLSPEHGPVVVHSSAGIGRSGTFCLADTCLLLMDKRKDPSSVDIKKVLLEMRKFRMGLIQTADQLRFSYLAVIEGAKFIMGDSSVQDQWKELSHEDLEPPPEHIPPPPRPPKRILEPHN
Procedure: FIG. 3 portrays calorimetric isothermal titration for the reaction of peptide Ac-Asp-Ala-Asp-Glu-F2Pmp-Leu-NH2 with PTP1B/D181A/Q262A. The upper graph depicts raw data for thirty 8-μl injections of the peptide (0.5 mM stock) into the isothermal cell containing 32 μM PTP1B/D181A/Q262A, at 4-min intervals and 25° C. Both the protein and the peptide were in 50 mM 3,3-dimethylglutarate buffer (I=0.15 M, pH 7.0) containing 1 mM DTT. The lower graph depicts an integration curve showing experimental points that were obtained by integration of the above peaks as plotted against the molar ratio of the peptide to PTP1B/D181A/Q262A within the reaction cell. The solid line corresponds to the best fit to the data according to the nonlinear, least-squares regression algorithm, ORIGIN (29).
All isothermal titration calorimetry experiments were performed using an MCS Isothermal Titration Calorimetry System from Microcal Inc. (Northampton, Mass.). […] The ionic strength of the buffer was adjusted to 0.15 M by addition of NaCl. Protein concentration in the calorimeter cell was 27-85 μM, while the ligand concentration in the syringe was 0.37-1 mM.
The PTP1B samples used in the isothermal titration calorimetry experiments were dialyzed completely against buffer. High-concentration stock solutions were prepared for ligands with distilled water, and adjusted to pH 7.0. Stock was diluted at least 26-fold with 50 mM 3,3-dimethylglutarate buffer before titration. Protein dilution during titration was determined by titration of buffer into the protein solution. […] The heat of ligand dilution was corrected by subtracting the average heat of injection after saturation.
The binding data were analyzed using ORIGIN software (29). Binding constant, K, and enthalpy change, ΔH, were used to calculate free energy change, ΔG, and entropy change, ΔS, according to equation [1]: −RTLnK=ΔG=ΔH−TΔS [1] where R is the gas constant and T is the absolute temperature.

[3] = tested on: Ac-Asp-Ala-Asp-Glu-F2Pmp-Leu-NH2; settings: cited from earlier work

B1: C215S: existing PTP1B substrate-trapping mutant, active site Cys215 replaced by Ser (protein, UniProt P18031 1-435, looked up, variant C215S)
Tyrosine-protein phosphatase …: MEMEKEFEQIDKSGSWAAIYQDIRHEASDFPCRVAKLPKNKNRNRYRDVSPFDHSRIKLHQEDNDYINASLIKMEEAQRSYILTQGPLPNTCGHFWEMVWEQKSRGVVMLNRVMEKGSLKCAQYWPQKEEKEMIFEDTNLKLTLISEDIKSYYTVRQLELENLTTQETREILHFHYTTWPDFGVPESPASFLNFLFKVRESGSLSPEHGPVVVHSSAGIGRSGTFCLADTCLLLMDKRKDPSSVDIKKVLLEMRKFRMGLIQTADQLRFSYLAVIEGAKFIMGDSSVQDQWKELSHEDLEPPPEHIPPPPRPPKRILEPHNGKCREFFPNHQWVKEETQEDKDCPIKEEKGSPLNAAPYGIESMSQDTEVRSRVVGGSLRGAQAASPAKGEPSLPEKDEDHALSYWKPFLVNMCVATVLTAGAYLCYRFLFNSNT
For B1, the phosphatase activity [1] is listed as “no measurable activities”, the “shape of ITC titration curve” value [2] is listed as “displayed two peaks” and the “affinity compared with wild-type enzyme” value ([3]; F2Pmp peptide, previously determined (24)) is listed as “same affinity as the wild-type enzyme”. The Kd ([3]; ITC, 25° C. and pH 7.0, data from (24)) was 190 ± 30 nM.
